Assay results from US20240309103A1.

How the values were obtained:
[1] = biological target: human NPR1 on HEK293/hNPR1.myc.DDK cells (0 hANP) (human) (UniProt P16066); assay: cell-based or functional assay
[2] = biological target: hNPR1-mFc:hANP or hNPR1-hFc:hANP complex (human) (UniProt P01160); assay: SPR, mAb captured, 25C
[3] = biological target: hNPR1-mFc:hBNP complex (human) (UniProt P16860); assay: SPR, mAb captured, 25C
mfNPR1-mFc (monkey) [4] = assay: SPR, mAb captured, 25C
[5] = biological target: mfNPR1-mFc:hANP complex (monkey; human) (UniProt P01160); assay: SPR, mAb captured, 25C
[6] = biological target: mfNPR1-mFc:hBNP complex (monkey; human) (UniProt P16860); assay: SPR, mAb captured, 25C
[7] = biological target: hNPR1-mFc:hANP or hNPR1-hFc:hANP complex (human) (UniProt P01160); assay: SPR, mAb captured, 37C
[8] = biological target: hNPR1-mFc:hBNP complex (human) (UniProt P16860); assay: SPR, mAb captured, 37C
mfNPR1-mFc (monkey) [9] = assay: SPR, mAb captured, 37C
[10] = biological target: mfNPR1-mFc:hANP complex (monkey; human) (UniProt P01160); assay: SPR, mAb captured, 37C
[11] = biological target: human NPR1 on HEK293/hNPR1.myc.DDK cells (0 hANP) (human) (UniProt P16066); assay: ECL cell binding (MSD), 0 hANP
mNPR1-mFc (mouse) [12] = assay: SPR Biacore, mAb captured by anti-human Fc, 25C
[13] = biological target: mNPR1-mFc:hANP complex (mouse; human) (UniProt P01160); assay: SPR Biacore, mAb captured by anti-human Fc, 25C
[14] = biological target: mNPR1-mFc:hBNP complex (mouse; human) (UniProt P16860); assay: SPR Biacore, mAb captured by anti-human Fc, 25C
mNPR1-mFc (mouse) [15] = assay: SPR Biacore, mAb captured by anti-human Fc, 37C
[16] = biological target: mNPR1-mFc:hANP complex (mouse; human) (UniProt P01160); assay: SPR Biacore, mAb captured by anti-human Fc, 37C
[17] = biological target: mNPR1-mFc:hBNP complex (mouse; human) (UniProt P16860); assay: SPR Biacore, mAb captured by anti-human Fc, 37C
[18] = biological target: mfNPR1-mFc:hBNP complex (monkey; human) (UniProt P16860); assay: SPR Biacore, mAb captured by anti-human Fc, 37C

Chain of human NPR1 on HEK293/hNPR1.myc.DDK cells (0 hANP) (human) (P16066 33-1061): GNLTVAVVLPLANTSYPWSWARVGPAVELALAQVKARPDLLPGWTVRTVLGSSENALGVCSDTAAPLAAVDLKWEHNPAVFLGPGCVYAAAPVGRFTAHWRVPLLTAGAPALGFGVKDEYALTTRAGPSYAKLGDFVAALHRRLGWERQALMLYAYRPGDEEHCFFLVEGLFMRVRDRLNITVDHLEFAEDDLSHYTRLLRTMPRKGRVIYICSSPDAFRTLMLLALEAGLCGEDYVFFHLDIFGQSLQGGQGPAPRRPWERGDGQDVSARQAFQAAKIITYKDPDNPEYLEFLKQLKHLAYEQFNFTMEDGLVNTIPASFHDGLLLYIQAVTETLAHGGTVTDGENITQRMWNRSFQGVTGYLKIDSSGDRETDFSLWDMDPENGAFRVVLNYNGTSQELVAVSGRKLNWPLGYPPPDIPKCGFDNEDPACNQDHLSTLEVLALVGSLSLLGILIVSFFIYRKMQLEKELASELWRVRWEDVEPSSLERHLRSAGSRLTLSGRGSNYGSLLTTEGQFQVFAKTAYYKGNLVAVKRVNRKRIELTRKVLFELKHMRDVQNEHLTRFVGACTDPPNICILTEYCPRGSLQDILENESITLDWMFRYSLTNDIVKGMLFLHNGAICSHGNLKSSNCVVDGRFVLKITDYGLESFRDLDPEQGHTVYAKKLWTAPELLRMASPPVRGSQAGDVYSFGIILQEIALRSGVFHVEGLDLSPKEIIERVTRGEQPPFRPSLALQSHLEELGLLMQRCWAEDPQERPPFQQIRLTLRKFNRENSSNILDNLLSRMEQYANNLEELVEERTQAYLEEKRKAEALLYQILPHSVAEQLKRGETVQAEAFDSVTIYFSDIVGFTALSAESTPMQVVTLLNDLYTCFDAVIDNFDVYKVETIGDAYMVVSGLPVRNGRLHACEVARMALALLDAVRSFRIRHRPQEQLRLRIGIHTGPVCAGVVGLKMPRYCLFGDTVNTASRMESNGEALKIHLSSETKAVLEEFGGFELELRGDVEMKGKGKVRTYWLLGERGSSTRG
Chain of mfNPR1-mFc (monkey) (chain, as listed by the source limits assumed): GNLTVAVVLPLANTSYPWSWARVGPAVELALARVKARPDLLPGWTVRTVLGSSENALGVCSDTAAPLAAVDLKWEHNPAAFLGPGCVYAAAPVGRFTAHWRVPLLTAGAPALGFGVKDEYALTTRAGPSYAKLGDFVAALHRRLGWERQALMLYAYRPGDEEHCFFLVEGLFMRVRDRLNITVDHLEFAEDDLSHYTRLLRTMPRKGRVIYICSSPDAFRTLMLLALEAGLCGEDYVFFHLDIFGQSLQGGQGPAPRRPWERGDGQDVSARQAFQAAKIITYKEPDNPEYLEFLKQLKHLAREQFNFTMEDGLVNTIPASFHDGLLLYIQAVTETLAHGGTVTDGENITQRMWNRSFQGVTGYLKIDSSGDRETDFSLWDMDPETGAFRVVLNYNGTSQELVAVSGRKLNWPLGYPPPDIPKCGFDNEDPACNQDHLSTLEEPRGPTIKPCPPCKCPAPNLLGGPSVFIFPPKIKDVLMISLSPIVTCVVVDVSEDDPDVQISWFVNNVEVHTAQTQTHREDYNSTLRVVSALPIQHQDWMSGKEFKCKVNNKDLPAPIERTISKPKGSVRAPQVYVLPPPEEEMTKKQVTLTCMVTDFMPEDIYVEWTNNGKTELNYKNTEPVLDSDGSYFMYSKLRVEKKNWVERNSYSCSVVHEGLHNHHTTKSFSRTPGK
Chain of mNPR1-mFc (mouse) (chain, as listed by the source limits assumed): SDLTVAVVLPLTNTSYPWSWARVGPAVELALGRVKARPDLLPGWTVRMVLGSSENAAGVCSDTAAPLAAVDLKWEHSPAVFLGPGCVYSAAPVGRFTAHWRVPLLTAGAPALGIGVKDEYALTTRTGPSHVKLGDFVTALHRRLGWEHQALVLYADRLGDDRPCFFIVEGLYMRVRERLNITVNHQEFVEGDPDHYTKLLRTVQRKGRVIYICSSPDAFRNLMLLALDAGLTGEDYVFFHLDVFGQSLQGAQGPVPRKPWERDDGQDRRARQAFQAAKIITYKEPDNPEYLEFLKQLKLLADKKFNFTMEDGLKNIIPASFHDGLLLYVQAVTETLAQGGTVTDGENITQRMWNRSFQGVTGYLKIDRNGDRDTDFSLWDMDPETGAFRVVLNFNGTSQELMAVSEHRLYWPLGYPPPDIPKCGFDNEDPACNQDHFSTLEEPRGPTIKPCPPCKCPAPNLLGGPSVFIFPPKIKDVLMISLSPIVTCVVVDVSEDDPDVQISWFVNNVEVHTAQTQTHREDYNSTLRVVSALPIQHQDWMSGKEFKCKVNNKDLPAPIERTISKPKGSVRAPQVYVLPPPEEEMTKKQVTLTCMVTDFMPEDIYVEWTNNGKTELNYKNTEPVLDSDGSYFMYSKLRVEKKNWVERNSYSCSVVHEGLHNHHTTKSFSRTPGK

EC50 (pM), ligand ANP, calcium flux activation, Expt II [1] | 100 nM Ag Bound (RU) [2] | 100 nM Ag Bound (RU) [3] | 100 nM Ag Bound (RU) (mfNPR1-mFc (monkey) [4]) | 100 nM Ag Bound (RU) [5] | 100 nM Ag Bound (RU) [6] | 100 nM Ag Bound (RU) [7] | 100 nM Ag Bound (RU) [8] | 100 nM Ag Bound (RU) (mfNPR1-mFc (monkey) [9]) | 100 nM Ag Bound (RU) [10] | % Activation (vs ANP max), Expt 1 [1] | % Activation (vs. ANP max), Expt II [1] | Ratio at 3.7 nM Ab concentration of Cell Binding Signal (RLU) to HEK293/hNPR1.myc.DKK relative to parental HEK293 [11] | 100 nM Ag Bound (RU) (mNPR1-mFc (mouse) [12]) | 100 nM Ag Bound (RU) [13] | 100 nM Ag Bound (RU) [14] | 100 nM Ag Bound (RU) (mNPR1-mFc (mouse) [15]) | 100 nM Ag Bound (RU) [16] | 100 nM Ag Bound (RU) [17] | 100 nM Ag Bound (RU) [18] | Substance
78.8 pM | – | – | – | – | – | – | – | – | – | – | – | – | – | – | – | – | – | – | – | ANP (from UniProt P01160 124-151) (ligand)
– | -12 RU | -11 RU | 5 RU | 7 RU | 7 RU | -18 RU | -17 RU | 8 RU | 9 RU | -6.03% | 1.9% | 1 | 0 RU | 1 RU | 2 RU | 2 RU | 2 RU | 3 RU | 9 RU | IgG4 Isotype Control (antibody)
